Substrate in this series: CC[C@H](C)[C@H](NC(C)=O)C(=O)NCC(=O)N[C@@H](CC(N)=O)C(=O)N[C@@H](CCCNC(=N)N)C(=O)Nc1ccc(COc2ccc3c(c2)OC2=C(/C=C/C4=[N+](C)c5ccccc5C4(C)C)CCCC2=C3)cc1
Briefly: fluorogenic NIR assay, Michaelis-Menten fit. The conditions noted are these: Tris buffer pH 8, 37 °C, 20 nM hGzmA, cleaved after Arg. The series is classed as biochemical, Homo sapiens.

B1: human GzmA (hGzmA), active recombinant (Homo sapiens) (protein)
chain: IIGGNEVTPHSRPYMVLLSLDRKTICAGALIAKDWVLTAAHCNLNKRSQVILGAHSITREEPTKQIMLVKKEFPYPCYDPATREGDLKLLQLMEKAKINKYVTILHLPKKGDDVKPGTMCQVAGWGRTHNSASWSDTLREVNITIIDRKVCNDRNHYNFNPVIGMNMVCAGSLRGGRDSCNGDSGSPLLCEGVFRGVTSFGLENKCGDPRGPGVYILLSKKHLNWIIMTIKGAV
notes: active recombinant enzyme (not the pro-form), dimeric
Regarding B1, the Km is listed as 6.9±1.0×10^-6 M and the kcat was found to be 0.26 ± 0.04 s⁻¹.

(Values after article PMC10953043, “Fluorogenic Granzyme A Substrates Enable Real‐Time Imaging of Adaptive Immune Cell Activity” (Angewandte Chemie (Weinheim an Der Bergstrasse, Germany), 2023).)
